Test results taken from US20200385445A1 (COMPUGEN, published 2020).

Columns and labels:
[1] = biological target: T1, human PVRIG (Poliovirus Receptor Related Immunoglobulin Domain Containing Protein), full length on cells (human, UniProt Q6DKI7 41-326); experiment: FACS on resting human CD4+ T cells
T1 construct: whole, on cells; Over-expressed on HEK293 (some pools flag-tagged) or endogenous on Jurkat, CA46, T cells, NK cells, TILs; also called hPVRIG; HEK hPVRIG
T1 sequence (looked up): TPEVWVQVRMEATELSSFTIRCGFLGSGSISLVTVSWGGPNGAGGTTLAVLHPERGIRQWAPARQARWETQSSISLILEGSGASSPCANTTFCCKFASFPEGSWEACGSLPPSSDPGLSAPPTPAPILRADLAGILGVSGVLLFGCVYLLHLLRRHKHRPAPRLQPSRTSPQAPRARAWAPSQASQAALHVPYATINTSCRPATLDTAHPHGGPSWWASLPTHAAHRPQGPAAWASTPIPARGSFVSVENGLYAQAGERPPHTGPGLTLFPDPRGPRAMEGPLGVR

[2] = biological target: T1, human PVRIG (Poliovirus Receptor …); experiment: FACS on CD4+ T cells, days 3-6 of activation
[3] = biological target: T2, L95R/T97I cyno PVRIG ECD with C-terminal 6xHis tag (cynomolgus monkey); experiment: ELISA on coated His-tagged PVRIG variant
T2 chain: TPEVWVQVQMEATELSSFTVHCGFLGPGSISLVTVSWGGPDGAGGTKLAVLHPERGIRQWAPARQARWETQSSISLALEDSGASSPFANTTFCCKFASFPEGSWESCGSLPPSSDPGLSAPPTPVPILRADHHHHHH

[4] = biological target: T1, human PVRIG (Poliovirus Receptor …); experiment: FACS dose titration on PVRIG over-expressing HEK293 cells
Method: FACS screening of the reformatted antibodies was done similarly to the PPE based screen described herein, except that a dose-dependent titration of the purified antibodies was performed. The human PVRIG over-expressing HEK293 cells, or the un-transfected HEK293 cells, were incubated with varying concentrations (0-10 μg/ml) of the anti PVRIG antibodies or isotype controls in FACS buffer at 4° C. for 60 mins. […] Cells were washed twice and re-suspended in a final volume of 80 μl of FACS buffer and Propidium Iodide (Biolegend cat #421301) diluted 1:1000. Samples were analyzed using an Intellicyt HTFC screening system (Intellicyt). Data was analyzed using FlowJo (DeNovo), exported to Excel (Microsoft) and plotted in GraphPad Prism (GraphPad Software, Inc.).
All unique ELISA and FACS binders were reformatted for expression as human IgG1 molecules in Expi293 cells. […] These reformatted antibodies were tested for retained binding to PVRIG over-expressing HEK293 cells alongside an irrelevant human IgG1 isotype control. All antibodies were also tested against un-transfected HEK293 cells.

[5] = biological target: T1, human PVRIG (Poliovirus Receptor …); experiment: flow cytometry, Alexa 647 IgG titrated on HEK 293 cells expressing human PVRIG, 1:1 equilibrium fit
[6] = biological target: T3, human PVRL2-His (Catalog #2229-N2-050/CF, R&D Systems) (human, UniProt Q92692 32-360); experiment: SPR ProteOn, analyte over Fc-captured ligand; complex kinetics
T3 construct: Bought (R&D Systems); also called His-tagged PVRL2 recombinant protein; PVRL2 (CD112)
T3 sequence (looked up): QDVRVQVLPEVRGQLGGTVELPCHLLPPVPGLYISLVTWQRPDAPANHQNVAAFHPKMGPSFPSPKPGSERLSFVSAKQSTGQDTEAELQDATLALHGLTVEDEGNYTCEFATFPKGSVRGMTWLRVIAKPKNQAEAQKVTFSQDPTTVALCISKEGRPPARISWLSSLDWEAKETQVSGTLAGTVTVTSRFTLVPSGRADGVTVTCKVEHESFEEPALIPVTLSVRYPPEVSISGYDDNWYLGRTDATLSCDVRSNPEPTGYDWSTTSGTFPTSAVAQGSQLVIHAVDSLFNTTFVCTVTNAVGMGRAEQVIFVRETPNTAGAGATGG

B1: Anti-human PVRIG - CPA.7.021, Human IgG2, conjugated to AF-647 (antibody, V domains shown)
VH: EVQLVESGGGVVKPGGSLRLSCAASGFTFGTSSMNWVRQAPGKGLEWVAVISFDGTEIHYADSVKGRFTISRDNSKSTVFLQMNSLRPDDTALYYCAKGSGNIYFYSGMDVWGQGTTVTVSS
VL: DIQMTQSPSTLSASVGDRVTITCRAGQSISGWLAWFQQKPGKAPNLLIYETSTLESGVPSRFSGSGSGTEYTLTISSLQPDDFATYYCQQYYSYPLTFGQGTKVEIK
modifications: Alexa Fluor 647 dye conjugated to the antibody (site not stated).
notes: also called Anti PVRIG-CPA.7.021 ab; CPA.7.021 IgG2 A647
fold staining over isotype control [1]: 3 fold
fold staining over isotype control [2]: 2 to 3 fold

B2: CPA.7.021 human IgG1 (antibody, V domains shown)
VH: EVQLVESGGGVVKPGGSLRLSCAASGFTFGTSSMNWVRQAPGKGLEWVAVISFDGTEIHYADSVKGRFTISRDNSKSTVFLQMNSLRPDDTALYYCAKGSGNIYFYSGMDVWGQGTTVTVSS
VL: DIQMTQSPSTLSASVGDRVTITCRAGQSISGWLAWFQQKPGKAPNLLIYETSTLESGVPSRFSGSGSGTEYTLTISSLQPDDFATYYCQQYYSYPLTFGQGTKVEIKR
binding result [3]: binds
Kd [4]: 11.2 nM

B3: CPA.7.021 IgG conjugated with Alexa 647 (antibody, V domains shown)
VH: EVQLVESGGGVVKPGGSLRLSCAASGFTFGTSSMNWVRQAPGKGLEWVAVISFDGTEIHYADSVKGRFTISRDNSKSTVFLQMNSLRPDDTALYYCAKGSGNIYFYSGMDVWGQGTTVTVSS
VL: DIQMTQSPSTLSASVGDRVTITCRAGQSISGWLAWFQQKPGKAPNLLIYETSTLESGVPSRFSGSGSGTEYTLTISSLQPDDFATYYCQQYYSYPLTFGQGTKVEIK
modifications: Alexa Fluor 647 dye conjugated to the antibody (site not stated).
notes: also called Alexa647 labelled CPA.7.021 IgG; conjugated CPA.7.021
Kd [5]: 2.5 nM

B4: CPA.7.034 human IgG1 (antibody, V domains shown)
VH: EVQLVQSGAEVKKPGASVKVSCKVSGYTLTELSMHWVRQAPGKGLEWMGGFDPEDGETIYAQKFQGRVTMTEDTSTDTAYMELSSLRSEDTAVYYCATEDPGPVAGPYYYYGMDVWGQGTTVTVSS
VL: DVVMTQSPLVLPVTPGEPASISCRSSQSLLYINGYHYLDWYVQRPGQSPQLLIFLGSTRASGVPDRFSGSGSGTDFTLEISKVEAEDVGIYFCMQALQTPPTFGGGTKVEIKR
notes: also called CPA.7.34
Kd [4]: 14.2 nM

B5: CPA.7.036 human IgG1 (antibody, V domains shown)
VH: QVQLVQSGAEVKKPGSSVKVSCKASGGTFSSSAISWVRQAPGQGFEWMGGIIPIYGITDYAQKFQGRVTITTDESTSTAYMELSSLTSEDTAVYYCARDDTARRVRGVPYYYYYAMDVWGQGTTVTVSS
VL: DIVMTQTPLSLPVTPGEPASISCRPSQSLLDSDDGNTYLDWYLQKPGQSPQLLIHTLSYRASGVPDRFSGSGSGTDFTLKISRVEAEDVGVYYCMQRLQFPLTFGGGTKVEIKR
notes: also called CPA.7.36
Kd [4]: 6 nM

B6: CPA.7.038 human IgG1 (antibody, V domains shown)
VH: QVQLVQSGAEVKKPGSSVKVSCKASGGTFSSSAISWVRQAPGQGFEWMGGIIPIYGITDYAQKFQGRVTITTDESTSTAYMELSSLTSEDTAVYYCARDDTARRVRGVPYYYYYAMDVWGQGTTVTVSS
VL: DIQMTQSPSSLSASVGDRVTITCQASRDISDSLSWYQQKPGKAPKLLIFDASNLKTGVSSRFSGSGSGTDFTFTISSLQPEDIATYYCHQYDNLPLTFGGGTKVEIKR
Kd [4]: 20.3 nM

B7: CPA.7.049 human IgG1 (antibody, V domains shown)
VH: QMQLVQSGAEVKKPGSSVKVSCKASGGTFSSSAISWVRQAPGQGFEWMGGIIPIYGITDYAQKFQGRVTITTDESTSTAYMELSSLTSEDTAVYYCARDDTARRVRGVPYYYYYAMDVWGQGTTVTVSS
VL: DIVMTQTPLSLPVTPGEPASMSCRSSRSLLDSDDGNTHLDWYLQKPGQSPQLLIQSLSYRASGVPDRFSGSGSGTDFTLEISRVEAEDVGIYYCMQRKEFPLTFGGGTKVEIKR
Kd [4]: 19.9 nM

B8: human DNAM-1 fusion protein (human fc, R&D Systems) (Fc fusion, UniProt Q15762 19-247, looked up, not shown: a dimerising Fc or GST)
chain: EEVLWHTSVPFAENMSLECVYPSMGILTQVEWFKIGTQQDSIAIFSPTHGMVIRKPYAERVYFLNSTMASNNMTLFFRNASEDDVGYYSCSLYTYPQGTWQKVIQVVQSDSFEAAVPSNSHIVSEPGKNVTLTCQPQMTWPVQAVRWEKIQPRQIDLLTYCNLVHGRNFTSKFPRQIVSNCSHGRWSVIVIPDVTVSDSGLYRCYLQASAGENETFVMRLTVAEGKTDN
notes: Bought
binding result [6]: binds

B9: CPA.7.050 human IgG1 (antibody, V domains shown)
VH: EVQLVQSGAEVKKPGSSVKVSCKASGGTFSSYAISWVRQAPGQGLEWMGGIIPIFGTANYAQKFQGRVTITADKSTSTAYMELSSLRSEDTAVYYCARGPWYYDSSGYSSYAYYMDVWGQGTTVTVSS
VL: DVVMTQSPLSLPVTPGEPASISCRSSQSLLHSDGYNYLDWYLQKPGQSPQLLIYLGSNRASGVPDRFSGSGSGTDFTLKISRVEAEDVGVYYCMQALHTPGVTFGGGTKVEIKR
notes: also called CPA.7.50
Kd [4]: 68.3 nM
